Laboratory results reported in article doi:10.1101/2022.05.10.491262.

Biological target: T1, human alpha-2-macroglobulin, native state (nA2M) (human), P01023
T1 chain: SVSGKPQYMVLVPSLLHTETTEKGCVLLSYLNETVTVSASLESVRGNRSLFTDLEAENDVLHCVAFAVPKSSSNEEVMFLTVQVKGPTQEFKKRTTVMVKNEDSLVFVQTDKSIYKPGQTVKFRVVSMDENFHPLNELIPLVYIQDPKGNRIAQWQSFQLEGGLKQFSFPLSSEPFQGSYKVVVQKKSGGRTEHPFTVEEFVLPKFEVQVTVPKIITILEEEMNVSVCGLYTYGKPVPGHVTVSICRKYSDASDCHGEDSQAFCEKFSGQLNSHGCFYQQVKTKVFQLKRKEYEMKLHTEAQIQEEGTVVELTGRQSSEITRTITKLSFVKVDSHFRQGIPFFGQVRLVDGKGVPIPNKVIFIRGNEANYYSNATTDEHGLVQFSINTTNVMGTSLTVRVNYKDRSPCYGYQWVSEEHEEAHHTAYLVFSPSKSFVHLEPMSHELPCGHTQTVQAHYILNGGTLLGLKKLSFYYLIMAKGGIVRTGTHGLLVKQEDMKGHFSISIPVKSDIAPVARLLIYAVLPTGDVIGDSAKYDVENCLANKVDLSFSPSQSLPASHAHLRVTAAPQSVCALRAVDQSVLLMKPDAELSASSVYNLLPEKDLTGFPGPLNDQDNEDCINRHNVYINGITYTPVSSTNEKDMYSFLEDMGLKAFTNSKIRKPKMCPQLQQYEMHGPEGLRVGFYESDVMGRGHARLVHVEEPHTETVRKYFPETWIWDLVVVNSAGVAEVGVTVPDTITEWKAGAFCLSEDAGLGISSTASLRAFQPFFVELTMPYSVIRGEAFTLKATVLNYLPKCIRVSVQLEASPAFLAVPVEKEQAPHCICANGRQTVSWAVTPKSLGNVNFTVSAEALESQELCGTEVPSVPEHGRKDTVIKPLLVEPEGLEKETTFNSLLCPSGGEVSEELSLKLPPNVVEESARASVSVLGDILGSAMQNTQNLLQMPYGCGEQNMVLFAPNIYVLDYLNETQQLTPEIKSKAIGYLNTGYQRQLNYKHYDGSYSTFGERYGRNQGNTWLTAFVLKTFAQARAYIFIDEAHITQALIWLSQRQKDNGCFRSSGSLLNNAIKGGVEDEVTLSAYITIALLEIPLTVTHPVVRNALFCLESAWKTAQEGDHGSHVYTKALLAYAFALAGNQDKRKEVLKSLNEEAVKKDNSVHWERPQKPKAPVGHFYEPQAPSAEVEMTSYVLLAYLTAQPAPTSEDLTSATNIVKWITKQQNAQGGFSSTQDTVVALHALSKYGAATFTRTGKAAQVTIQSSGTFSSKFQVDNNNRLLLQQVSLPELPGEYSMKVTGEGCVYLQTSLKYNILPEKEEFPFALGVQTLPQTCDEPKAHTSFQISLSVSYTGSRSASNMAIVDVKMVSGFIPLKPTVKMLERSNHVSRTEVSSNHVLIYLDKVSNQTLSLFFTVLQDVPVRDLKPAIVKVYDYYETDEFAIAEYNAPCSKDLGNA
Assay: ITC

- stoichiometry N (trypsin per hA2M): 1.2
B1: human trypsin, P35030 81-304 (enzyme)
chain: IVGGYTCEENSLPYQVSLNSGSHFCGGSLISEQWVVSAAHCYKTRIQVRLGEHNIKVLEGNEQFINAAKIIRHPKYNRDTLDNDIMLIKLSSPAVINARVSTISLPTTPPAAGTECLISGWGNTLSFGADYPDELKCLDAPVLTQAECKASYPGKITNSMFCVGFLEGGKDSCQRDSGGPVVCNGQLQGVVSWGHGCAWKNRPGVYTKVYNYVDWIKDTIAANS
modifications: not checked
